Reference: patent US20250152729A1 (CANCER RESEARCH TECHNOLOGY, published 2025)
Where two headings read alike, the source gives them in different places.

T1: mouse SEMA4A expressed on expi293 cells (UniProt ID Q62178) (mouse, UniProt Q62178 33-760)
T1 construct: Transient transfection in expi293 cells
T1 sequence: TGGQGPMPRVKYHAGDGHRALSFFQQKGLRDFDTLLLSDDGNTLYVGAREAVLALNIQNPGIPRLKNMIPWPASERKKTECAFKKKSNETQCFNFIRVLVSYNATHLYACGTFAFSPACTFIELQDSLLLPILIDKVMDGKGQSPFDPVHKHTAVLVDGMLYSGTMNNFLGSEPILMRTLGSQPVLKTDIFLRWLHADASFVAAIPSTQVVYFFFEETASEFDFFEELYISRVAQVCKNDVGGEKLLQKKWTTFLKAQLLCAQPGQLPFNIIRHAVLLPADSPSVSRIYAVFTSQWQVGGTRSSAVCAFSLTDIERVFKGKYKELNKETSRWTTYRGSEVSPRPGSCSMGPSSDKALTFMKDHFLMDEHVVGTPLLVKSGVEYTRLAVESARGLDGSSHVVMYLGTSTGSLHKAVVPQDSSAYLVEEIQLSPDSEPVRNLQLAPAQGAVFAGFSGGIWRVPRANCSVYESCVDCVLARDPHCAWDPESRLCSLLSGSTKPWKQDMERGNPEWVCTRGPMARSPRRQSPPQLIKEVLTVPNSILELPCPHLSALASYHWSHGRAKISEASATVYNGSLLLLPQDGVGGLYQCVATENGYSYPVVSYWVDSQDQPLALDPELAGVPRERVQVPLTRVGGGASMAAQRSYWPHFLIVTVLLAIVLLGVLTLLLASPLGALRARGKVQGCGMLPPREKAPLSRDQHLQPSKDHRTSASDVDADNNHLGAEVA

T2: human SEMA4A expressed on cells (UniProt ID Q9H3S1, isoform 1) (human, UniProt Q9H3S1 33-761)
T2 sequence: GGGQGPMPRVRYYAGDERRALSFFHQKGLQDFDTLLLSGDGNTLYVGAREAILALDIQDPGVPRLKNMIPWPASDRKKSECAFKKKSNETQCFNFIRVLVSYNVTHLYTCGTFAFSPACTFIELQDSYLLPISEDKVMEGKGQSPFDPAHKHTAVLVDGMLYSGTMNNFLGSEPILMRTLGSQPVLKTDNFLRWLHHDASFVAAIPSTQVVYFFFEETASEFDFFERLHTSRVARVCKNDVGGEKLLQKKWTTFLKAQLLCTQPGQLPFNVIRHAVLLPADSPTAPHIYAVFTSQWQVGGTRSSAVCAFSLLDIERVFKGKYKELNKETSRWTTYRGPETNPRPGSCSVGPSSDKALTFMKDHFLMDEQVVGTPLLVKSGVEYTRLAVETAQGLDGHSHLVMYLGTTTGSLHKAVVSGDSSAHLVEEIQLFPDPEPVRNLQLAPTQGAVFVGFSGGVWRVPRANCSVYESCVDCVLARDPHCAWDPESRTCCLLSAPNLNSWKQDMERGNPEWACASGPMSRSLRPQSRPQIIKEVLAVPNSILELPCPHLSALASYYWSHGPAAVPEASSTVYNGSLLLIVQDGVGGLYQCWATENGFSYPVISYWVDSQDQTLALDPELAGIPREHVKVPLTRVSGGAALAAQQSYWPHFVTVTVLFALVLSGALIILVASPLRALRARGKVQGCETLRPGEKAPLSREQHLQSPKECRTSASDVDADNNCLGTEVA

T3: human SEMA4B expressed on expi293 cells (human, UniProt Q9NPR2 44-837)
T3 construct: whole, on cells
T3 sequence (looked up): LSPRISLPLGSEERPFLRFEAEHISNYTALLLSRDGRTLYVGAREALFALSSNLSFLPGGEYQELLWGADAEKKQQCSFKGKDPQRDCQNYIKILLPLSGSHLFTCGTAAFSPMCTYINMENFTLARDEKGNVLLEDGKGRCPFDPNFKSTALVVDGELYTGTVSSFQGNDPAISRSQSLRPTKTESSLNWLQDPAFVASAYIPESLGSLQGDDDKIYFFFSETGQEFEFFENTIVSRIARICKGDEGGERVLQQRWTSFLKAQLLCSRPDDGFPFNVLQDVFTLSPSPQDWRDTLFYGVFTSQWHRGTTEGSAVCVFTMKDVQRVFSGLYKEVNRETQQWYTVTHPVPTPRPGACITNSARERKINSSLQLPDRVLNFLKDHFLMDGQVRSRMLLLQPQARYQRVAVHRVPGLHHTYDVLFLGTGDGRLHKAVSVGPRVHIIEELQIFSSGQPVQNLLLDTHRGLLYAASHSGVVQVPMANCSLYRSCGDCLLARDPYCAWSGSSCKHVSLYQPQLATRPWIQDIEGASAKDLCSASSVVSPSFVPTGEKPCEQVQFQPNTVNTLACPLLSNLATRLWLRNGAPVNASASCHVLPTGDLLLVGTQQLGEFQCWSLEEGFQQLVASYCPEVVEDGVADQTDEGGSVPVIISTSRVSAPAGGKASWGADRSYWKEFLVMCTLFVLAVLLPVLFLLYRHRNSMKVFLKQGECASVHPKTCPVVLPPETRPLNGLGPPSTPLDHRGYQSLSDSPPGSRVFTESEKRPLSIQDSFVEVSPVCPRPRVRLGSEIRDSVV

B1: C0120913 (antibody, V domains shown)
VH: QVQLVQSGAEVKKPGESLKISCKGSGYSFTSYWVGWVRQMPGKGLEWMGIIYPGDSDARYGPSFQGQVTISADKSINTAYLQWNSLKASDTATYYCARLGDGAYYYYLDVWGRGTMVTVSS
VL: SYELTQPPSVSESPGRTVTISCSGSSGSIASNFVHWYQQRPGSAPTTVIYEDDQRPSGVPDRFSGSIDSSSNSASLTISGLKTEDEADYYCQSYDNNDHAVFGGGTKLTVL
modifications: 239iCys and S442C (EU numbering) in the constant region
notes: purified, unconjugated; also called C0120913 human Alya IgG1 (unconjugated)
B2: 5Hg1-5Lg2 human Alya IgG1 conjugated to McMMAF (antibody, V domains shown)
VH: QVQLVQSGAEVKKPGASVKVSCKASGYTFTDYWMHWVRQAPGQGLEWMGAIDTSDSYTSYNQKFKGRVTMTRDTSTSTVYMELSSLRSEDTAVYYCARDYGNFYYYAMDYWGQGTLVTVSS
VL: QAVVTQEPSLTVSPGGTVTLTCRSSTGAVTTSNYANWFQQKPGQAPRTLIYGTNNRAPWTPARFSGSLLGGKAALTLLGAQPEDEAEYYCALWYSNHWVFGGGTKLTVL
modifications: McMMAF on the engineered cysteines 239iCys and S442C (EU numbering) of the heavy constant region
notes: Antibody-drug conjugate; human IgG1 Alya constant
B3: 5Hg2-5Lg3 human Alya IgG1 conjugated to McMMAF (antibody, V domains shown)
VH: QVQLVQSGAEVKKPGASVKVSCKASGYTFTDYWMHWVRQAPGQRLEWMGAIDTSDSYTSYNQKFKGRVTITRDTSASTAYMELSSLRSEDTAVYYCARDYGNFYYYAMDYWGQGTLVTVSS
VL: QTVVTQEPSFSVSPGGTVTLTCRSSTGAVTTSNYANWYQQTPGQAPRTLIYGTNNRAPGVPDRFSGSILGNKAALTITGAQADDESDYYCALWYSNHWVFGGGTKLTVL
modifications: McMMAF on the engineered cysteines 239iCys and S442C (EU numbering) of the heavy constant region
notes: as for B2
B4: 5Hg2-5Lg1 human Alya IgG1 conjugated to McMMAF (antibody, V domains shown)
VH: QVQLVQSGAEVKKPGASVKVSCKASGYTFTDYWMHWVRQAPGQRLEWMGAIDTSDSYTSYNQKFKGRVTITRDTSASTAYMELSSLRSEDTAVYYCARDYGNFYYYAMDYWGQGTLVTVSS
VL: QAVVTQEPSLTVSPGGTVTLTCRSSTGAVTTSNYANWFQQKPGQAPRTLIYGTNNRAPWTPARFSGSLLGGKAALTLSGAQPEDEAEYYCALWYSNHWVFGGGTKLTVL
modifications: McMMAF on the engineered cysteines 239iCys and S442C (EU numbering) of the heavy constant region
notes: as for B2
B5: C0120910 human Alya IgG1 conjugated to McMMAF (antibody, V domains shown)
VH: QVQLVESGGGVVQPGRSLRLSCEASEFTFSNYAMHWVRQAPDKGLEWVAGILYDGATAHYADSVKGRFTISRDNSKNTLYLQINSLRAEDTAVYYCARAHYYDYWSGLSFEYWGRGTLVTVSS
VL: QSVLTQPPSASVSPGQTASIPCSGDDLGDKYIYWYQQKPGQSPVLVIYQDSRRPPGIPERFSGSNSGNTATLTISGTQPMDEADYYCQTWDTSSASAVFGGGTKVTVL
modifications: McMMAF on the engineered cysteines 239iCys and S442C (EU numbering) of the heavy constant region
notes: as for B2
B6: C0120910 (antibody, V domains shown)
VH: QVQLVESGGGVVQPGRSLRLSCEASEFTFSNYAMHWVRQAPDKGLEWVAGILYDGATAHYADSVKGRFTISRDNSKNTLYLQINSLRAEDTAVYYCARAHYYDYWSGLSFEYWGRGTLVTVSS
VL: QSVLTQPPSASVSPGQTASIPCSGDDLGDKYIYWYQQKPGQSPVLVIYQDSRRPPGIPERFSGSNSGNTATLTISGTQPMDEADYYCQTWDTSSASAVFGGGTKVTVL
modifications: 239iCys and S442C (EU numbering) in the constant region
notes: purified, unconjugated; also called C0120910 human Alya IgG1 (unconjugated)
B7: C0120904 human Alya IgG1 conjugated to McMMAF (antibody, V domains shown)
VH: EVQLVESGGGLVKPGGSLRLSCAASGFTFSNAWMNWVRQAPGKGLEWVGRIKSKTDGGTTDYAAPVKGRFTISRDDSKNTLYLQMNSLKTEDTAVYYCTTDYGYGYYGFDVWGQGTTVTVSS
VL: SYELTQPPSVSVSPGQTATISCSGNKLGDGYVSWYQQKPGQSPVLVIYQDSKRPSGIPQRYSGSNSGNTATLTISGTQAIDEADYYCQAWDSSTVVFGGGTKVTVL
modifications: McMMAF on the engineered cysteines 239iCys and S442C (EU numbering) of the heavy constant region
notes: as for B2
B8: C0120904 (antibody, V domains shown)
VH: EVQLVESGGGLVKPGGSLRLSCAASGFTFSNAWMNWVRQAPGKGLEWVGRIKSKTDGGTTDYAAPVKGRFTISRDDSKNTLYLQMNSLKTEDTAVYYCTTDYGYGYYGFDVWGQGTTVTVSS
VL: SYELTQPPSVSVSPGQTATISCSGNKLGDGYVSWYQQKPGQSPVLVIYQDSKRPSGIPQRYSGSNSGNTATLTISGTQAIDEADYYCQAWDSSTVVFGGGTKVTVL
modifications: 239iCys and S442C (EU numbering) in the constant region
notes: purified, unconjugated; also called C0120904 human Alya IgG1 (unconjugated)
B9: C0120919 (antibody, V domains shown)
VH: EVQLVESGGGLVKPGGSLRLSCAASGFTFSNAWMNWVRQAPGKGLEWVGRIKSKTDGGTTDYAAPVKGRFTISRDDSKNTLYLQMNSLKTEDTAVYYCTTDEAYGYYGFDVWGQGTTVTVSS
VL: QSALTQPPSVSVSSGQTASITCSGDKLGDKYASWYQQKPGQSPVLVIYQDTKRPSEIPERFSGSNSGNTATLTISGTQAMDEADYYCQAWDSSLVFGGGTKVTVL
modifications: 239iCys and S442C (EU numbering) in the constant region
notes: purified, unconjugated; also called C0120919 human Alya IgG1 (unconjugated)

Key:
[1] = target: T1, mouse SEMA4A expressed on expi293 cells …; assay: Mirrorball direct binding, dilution series on expi293 cells transiently transfected with mouse SEMA4A, anti-human Alexa Fluor 647
Excerpt: (§1) Hits from the primary screening were re-formatted into the human Alya IgG1 vector and re-expressed and purified as described in section 4.1. In addition, a single clone was identified that contained an Asparagine deamidation motif (Asn Gly) within its VHCDR2. This potential sequence liability was de-risked by synthesising de novo two clonal variant VH genes (Asn Ala and Gln Gly) and cloning these sequences into the human Alya IgG1 expression vector. To determine the specificity profile of each purified human Alya IgG1, a dilution series was tested for binding to human SEMA4A, mouse SEMA4A, cyno SEMA4A, human SEMA4B and mock transfected cells (transient transfections set up in expi 293 cells.) The five assays employed methods described in section 2.3, using the appropriate cells and substituting the un-purified scFv periplasmic preparation with the recombinant human Alya IgG1 dilution series. Data was analysed as Count x median mean intensity (x FLU).

[2] = target: T2, human SEMA4A expressed on cells …; assay: cell-based or functional assay
[3] = target: T3, human SEMA4B expressed on expi293 cells; assay: Mirrorball direct binding, dilution series on expi293 cells transiently transfected with human SEMA4B, anti-human Alexa Fluor 647
Protocol: To determine the specificity profile of each purified human Alya IgG1 conjugated to McMMAF, a dilution series was tested for binding to human SEMA4A, human SEMA4B and mock transfected cells (transient transfections set up in expi 293 cells.) The three assays employed methods described in section 2.3, using the appropriate cells and substituting the un-purified scFv periplasmic preparation with the human Alya IgG1 conjugated to McMMAF. Data was analysed as Count x median mean intensity (x FLU).

[4] = target: T2, human SEMA4A expressed on cells …; assay: cell-based or functional assay; remark: listed apart in the source
[5] = target: T2, human SEMA4A expressed on cells …; assay: cell-based or functional assay; remark: listed apart in the source
[6] = target: T3, human SEMA4B expressed on expi293 cells; assay: Mirrorball direct binding, dilution series on expi293 cells transiently transfected with human SEMA4B, anti-human Alexa Fluor 647; remark: listed apart in the source
Excerpt: as §1

Row | Binder | binding result [1] | Average KARPAS 25 IC50 [pM], cell kill [2] [pM] | Average MM1.S IC50 [pM], cell kill [2] [pM] | Average NCI-H929 IC50 [pM], cell kill [2] [pM] | binding result [3] | also measured
1 | B1 | binds | – | – | – | – | –
2 | B2 | – | 317 | 15.8 | 59.4 | no binding (tested: log (M) -8 (1e-8 M)) | EC50 (nM), Fab-pHast internalisation into NCI-H929 [4]: 0.75 nM; Fold-Change at 6 hours (10 nM), Fab-pHast internalisation [4]: 150 fold
3 | B3 | – | 316 | 102 | 863 | no binding (tested: log (M) -8 (1e-8 M)) | –
4 | B4 | – | 228 | 11.8 | 33.6 | no binding (tested: log (M) -8 (1e-8 M)) | EC50 (nM), Fab-pHast internalisation into NCI-H929 [4]: 0.62 nM; Fold-Change at 6 hours (10 nM), Fab-pHast internalisation [4]: 144 fold
5 | B5 | – | – | – | – | no binding (tested: log (M) -8 (1e-8 M)) | Average MM1.S IC50 [pM], cell kill [5]: 7490 pM; Average NCI-H929 IC50 [pM], cell kill [5]: 3990 pM
6 | B6 | binds | – | – | – | – | –
7 | B7 | – | – | – | – | no binding (tested: log (M) -8 (1e-8 M)) | Average MM1.S IC50 [pM], cell kill [5]: 1490 pM; Average NCI-H929 IC50 [pM], cell kill [5]: 18100 pM
8 | B8 | binds | – | – | – | – | binding result [6]: no binding (tested: log (M) -8 (1e-8 M))
9 | B9 | binds | – | – | – | – | binding result [6]: no binding (tested: log (M) -8 (1e-8 M))
